Test results from patent US8846340B2, “Carbohydrate-binding modules of a new family” (Novozymes A/S, priority 2003, dated 2014).

Legend:
[1] = Competition binding assay with CBMX, Avicel and soluble carbohydrate; parameters: species or system tamarind; details: xyloglucan
Method: (§1) Affinity of CBMX for a number of soluble carbohydrates was tested in a competition assay by mixing 100 μl CBMX with both Avicel® (400 μl 50 mg/ml in 20 mM Tris, pH 7.5) and the soluble carbohydrate (dissolved in 500 μl 20 mM Tris, pH 7.5). As references, samples without CBMX or soluble carbohydrate added were used. If CBMX has affinity for the soluble carbohydrate it should be able to keep CBMX in solution which can be measured as increase in absorbance at 280 nm compared to sample without soluble carbohydrate added. After 4 hours incubation at room temperature with agitation, samples were centrifuged and absorbance at 280 nm was read using 200 μl supernatant in the well of a microtiter UV plate. Tested soluble carbohydrates were barley β-glucan (Megazyme, low viscosity), lichenan (Megazyme, Icelandic moss), CMC (carboxymethyl cellulose 7LF, Hercules, USA), Xyloglucan (Megazyme, amyloid, from tamarind seed), lupin galactan (Megazyme) and Locust bean gum (Sigma, G-0753).

[2] = Competition binding assay with CBMX and Avicel, references without soluble carbohydrate; details: 4 hours
Method: as §1

[3] = Competition binding assay with CBMX, Avicel and soluble carbohydrate; details: for CBMX kept in solution by soluble carbohydrate (in words): competition with Avicel
Method: as §1

[4] = as above; parameters: species or system Icelandic moss; details: lichenan
Method: as §1

[5] = Binding of CBMX to Avicel (A280 of supernatant); details: for A280: Absorbance at 280 nm of 200 μl supernatant, absorbance of buffer and Avicel subtracted: 4 hours, room temperature, 20 mM Tris pH 7.5
Method: The carbohydrate-binding domain with affinity for Avicel® and purified as described in Example 2 (CBMX) was studied further. 50 μl purified CBMX was mixed with 500 μl 20 mM Tris, pH 7.5 containing varying amount of Avicel® (0-100 mg/ml) in an Eppendorf tube. After 4 hours incubation at room temperature with agitation, the samples were centrifuged. 200 μl supernatant was transferred to the well of a microtiter plate (Costar, UV plate) and absorbance read at 280 nm on a microtiter plate reader (SpectraMax® Plus, Molecular Devices).

[6] = Competition binding assay with CBMX, Avicel and soluble carbohydrate; parameters: species or system lupin; details: galactan
Method: as §1

[7] = as above; parameters: species or system barley; details: beta-glucan
Method: as §1

[8] = Binding of CBMX to PASC (A280 of supernatant); details: 4 hours, room temperature; for A280: Absorbance at 280 nm of 200 μl supernatant, absorbance of buffer subtracted: 20 mM Tris pH 7.5
Method: A similar binding study was performed with PASO (Phosphoric Acid Swollen Cellulose: To 5 g Avicel® moistened with water 150 ml ice-cold 85 ortho-phosphoric acid is added. After 1 hour stirring on ice bath, 500 ml cold acetone is added. The suspension is filtered and washed, first with acetone and then with water). 50 μl purified CBMX was mixed with 500 μl 20 mM Tris, pH 7.5 containing varying amount of PASO (0-10 mg/ml) in an Eppendorf tube. Samples were incubated 4 hours at room temperature with agitation. After centrifugation, 200 μl supernatant was transferred to the well of a microtiter plate and absorbance read at 280 nm.

B1: CBMX: Carbohydrate-binding module of Pseudoplectania nigrella GH61 enzyme (positions 34-174 of SEQ ID NO:2), expressed in Aspergillus oryzae, purified on Avicel (protein, listed as Pseudoplectania nigrella)
chain: SSGTSNDKAVASSSIAAVDPVTSSVVASVQVPNFTATDVPTFTATDIPTFTATDVPIFTKKPQQPSTLLTRTRTHASVSFVAKPSAFIPKPSASTIPSKPKTPEEVNKCLDAVNACITQAQSSIGGVVNFEPCESQRALCY
With B1 the “Affinity of CBMX for soluble carbohydrate (in words)” value (shortened to “Affinity of CBMX”) [1] was “to some extent”, the “CBMX kept in solution by soluble carbohydrate (in words)” value (shortened to “CBMX kept in solution”) ([1]; competition with Avicel) was “about half of the CBMX in solution” and the “Difference in A280 between samples with and without CBMX added” value ([2]; None - Only Avicel (20 mg/ml) and CBMX, no soluble carbohydrate) was 0.018. The “Difference in A280 between samples with and without CBMX added” value ([2]; None - Only CBMX (no Avicel, no soluble carbohydrate)) was 0.108, the “Affinity of CBMX” value ([3]; CMC) was “affinity” and the “CBMX kept in solution” value ([3]; CMC) was “keep almost all CBMX in solution”. The “Affinity of CBMX” value ([3]; locust bean gum) was “affinity”, the “CBMX kept in solution” value ([3]; locust bean gum) was “keeps the majority in solution” and the “Affinity of CBMX” value [4] was “no affinity for lichenan could be detected”. For the same molecule, the “CBMX kept in solution” value ([4]; competition with Avicel) was “does not result in any increase in CBMX in solution”, the “A280: Absorbance at 280 nm of 200 μl supernatant, absorbance of buffer and Avicel subtracted” value ([5]; Avicel 0.0 mg/ml) was 0.0768 and the “A280: Absorbance at 280 nm of 200 μl supernatant, absorbance of buffer and Avicel subtracted” value ([5]; Avicel 0.391 mg/ml) was 0.0777. For the same molecule, the “A280: Absorbance at 280 nm of 200 μl supernatant, absorbance of buffer and Avicel subtracted” value ([5]; Avicel 0.781 mg/ml) was 0.0808, the “A280: Absorbance at 280 nm of 200 μl supernatant, absorbance of buffer and Avicel subtracted” value ([5]; Avicel 1.563 mg/ml) was 0.0799 and the “A280: Absorbance at 280 nm of 200 μl supernatant, absorbance of buffer and Avicel subtracted” value ([5]; Avicel 3.125 mg/ml) was 0.0729. For the same molecule, the “A280: Absorbance at 280 nm of 200 μl supernatant, absorbance of buffer and Avicel subtracted” value ([5]; Avicel 6.25 mg/ml) was 0.0637, the “A280: Absorbance at 280 nm of 200 μl supernatant, absorbance of buffer and Avicel subtracted” value ([5]; Avicel 12.5 mg/ml) was 0.0540 and the “A280: Absorbance at 280 nm of 200 μl supernatant, absorbance of buffer and Avicel subtracted” value ([5]; Avicel 25 mg/ml) was 0.0326. For the same molecule, the “A280: Absorbance at 280 nm of 200 μl supernatant, absorbance of buffer and Avicel subtracted” value ([5]; Avicel 50 mg/ml) was 0.0185, the “A280: Absorbance at 280 nm of 200 μl supernatant, absorbance of buffer and Avicel subtracted” value ([5]; Avicel 100 mg/ml) was 0.0095 and the “Binding of the protein to Avicel (in words)” value ([5]; highest concentrations of Avicel, 4 hours incubation) was “the large majority of the protein binds”. For the same molecule, the “Affinity for Avicel (in words)” value ([5]; summary statement) was “have affinity for Avicel®”, the “Affinity of CBMX” value [6] was “to some extent” and the “CBMX kept in solution” value ([6]; competition with Avicel) was “about half of the CBMX in solution”. The “Affinity of CBMX” value [7] was “affinity”, the “CBMX kept in solution” value ([7]; competition with Avicel) was “keep almost all CBMX in solution” and the “Affinity for PASC (in words)” value ([8]; 0-10 mg/ml) was “has affinity for PASO”. The “A280: Absorbance at 280 nm of 200 μl supernatant, absorbance of buffer subtracted” value (“A280: Absorbance … of buffer subtracted” for short) ([8]; PASC 0.0 mg/ml) was 0.0753, the “A280: Absorbance … of buffer subtracted” value ([8]; PASC 0.625 mg/ml) was 0.0682 and the “A280: Absorbance … of buffer subtracted” value ([8]; PASC 1.25 mg/ml) was 0.0710. For the same molecule, the “A280: Absorbance … of buffer subtracted” value ([8]; PASC 2.5 mg/ml) was 0.0618, the “A280: Absorbance … of buffer subtracted” value ([8]; PASC 5 mg/ml) was 0.0512 and the “A280: Absorbance … of buffer subtracted” value ([8]; PASC 10 mg/ml) was 0.0471.
